From patent US20260151494A1 (ARO BIOTHERAPEUTICS, published 2026) come the findings set out here.

The target of assay [1] is T1, human CD71 extracellular domain (human, UniProt P02786 89-760, biotinylated).
T1 construct: also called hCD71; CD71-ECD
In words: primary ELISA, RLU over HSA.

The target in assay [2] is T2, apical domain of human CD71 (human, UniProt P02786 189-383, limits assumed).
T2 construct: domain: apical domain; Screen 4 panned on human apical domains, the ELISA text says only 'apical domain'
As to the kind of experiment: primary ELISA, RLU over HSA.

The target of assay [3] is T1, human CD71 extracellular domain. In words: primary ELISA. Also: test concentration or dose not given here. In general terms: In an ELISA, binding on a coated surface is turned into a signal by an enzyme label.
Assay [4] concerns the target T2, apical domain of human CD71. As to the kind of experiment: primary ELISA. Also: test concentration or dose not given here.

T1 sequence (P02786 89-760): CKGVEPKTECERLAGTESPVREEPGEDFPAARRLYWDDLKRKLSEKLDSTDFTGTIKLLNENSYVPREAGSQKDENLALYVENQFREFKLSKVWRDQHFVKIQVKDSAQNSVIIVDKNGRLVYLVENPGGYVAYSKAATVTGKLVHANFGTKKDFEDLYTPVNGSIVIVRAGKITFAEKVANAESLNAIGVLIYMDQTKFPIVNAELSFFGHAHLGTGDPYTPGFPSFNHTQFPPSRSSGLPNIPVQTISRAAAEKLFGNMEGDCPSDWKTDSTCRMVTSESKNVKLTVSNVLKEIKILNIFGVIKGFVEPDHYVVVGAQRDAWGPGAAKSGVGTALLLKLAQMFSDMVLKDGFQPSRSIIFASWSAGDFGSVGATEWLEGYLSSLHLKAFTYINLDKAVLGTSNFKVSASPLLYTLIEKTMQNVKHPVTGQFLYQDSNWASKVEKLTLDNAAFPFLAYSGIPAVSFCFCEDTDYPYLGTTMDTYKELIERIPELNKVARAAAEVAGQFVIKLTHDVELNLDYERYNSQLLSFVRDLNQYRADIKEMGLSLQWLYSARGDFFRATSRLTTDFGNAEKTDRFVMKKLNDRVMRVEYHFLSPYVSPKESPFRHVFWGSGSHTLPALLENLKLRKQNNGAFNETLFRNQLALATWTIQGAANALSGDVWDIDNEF
T2 sequence (P02786 189-383 limits assumed): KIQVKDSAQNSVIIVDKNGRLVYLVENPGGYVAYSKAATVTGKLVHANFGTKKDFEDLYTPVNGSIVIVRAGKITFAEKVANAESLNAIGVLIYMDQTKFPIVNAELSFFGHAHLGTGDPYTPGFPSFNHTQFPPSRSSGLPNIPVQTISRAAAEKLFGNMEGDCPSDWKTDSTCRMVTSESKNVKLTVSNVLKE

B1: CD71-binding FN3 domain of SEQ ID NO: 494 (designed binder)
chain: MLPAPKNLVVSRVTEDSARLSWTTPDAAFDSFFIGYLEPQPPGEAISLYVPGSERSYDLTGLKPGTEYNVTIQGVKGGFPSMPLSAIFTT
Regarding B1, the “hCD71:HSA” value in assay [1] stood at 356. Besides, the “Apical domain:HSA” value in assay [2] was 369. In addition, the figures for the RLU in assay [3] and in assay [4] were 3.2e+06 RLU and 3.32e+06 RLU, respectively.

B2: CD71-binding FN3 domain of SEQ ID NO: 518 (designed binder)
chain: MLPAPKNLVVSRVTEDSARLSWTAPDAAFDSFFIGYLEPQPPGEAISLWVPGSERSYDLTGLKPGTEYNVTIQGVKGGFPSDPLGAHFTT
B2: the “hCD71:HSA” value in assay [1] was determined as 150. In addition, the “Apical domain:HSA” value in assay [2] was 271. For the same molecule, the values for the RLU in assay [3] and in assay [4] were 1.85e+06 RLU and 3.34e+06 RLU, respectively.

B3: CD71-binding FN3 domain of SEQ ID NO: 499 (designed binder)
chain: MLPAPKNLVVSRVTEDSARLSWTAPDAAFDSFFIGYLEPQPPGEAISLYVPGSERSYDLTGLKPGTEYNVTIQGVKGGFPSSPLFADFTT
Take B3: in assay [1], the “hCD71:HSA” value came out at 132. In addition, the “Apical domain:HSA” value in assay [2] stood at 148. Besides, the RLU in assay [3] came to 2.78e+06 RLU; in assay [4] it was 3.13e+06 RLU.

B4: CD71-binding FN3 domain of SEQ ID NO: 524 (designed binder)
chain: MLPAPKNLVVSRVTEDSARLSWTAPDAAFDSFFIGYLEPQPPGEAIHLWVPGSERSYDLTGLKPGTEYNVTIQGVKGGFPSMPLSAIFTT
Take B4: the “hCD71:HSA” value in assay [1] stood at 190. For the same molecule, the “Apical domain:HSA” value in assay [2] worked out at 232. In addition, the RLU in assay [3] worked out at 3.22e+06 RLU; in assay [4] it was 3.95e+06 RLU.

B5: CD71-binding FN3 domain of SEQ ID NO: 516 (designed binder)
chain: MLPAPKNLVVSRVTEDSARLSWTAPDAAFDSFFIGYLEPQPPGEAISLWVPGSERSYDLTGLKPGTEYNVTIQGVKGGFPSSPLVAYFTT
B5: the “hCD71:HSA” value in assay [1] stood at 267. Besides, in assay [2], the “Apical domain:HSA” value was found to be 264. Besides, the results for the RLU in assay [3] and in assay [4] were 4.73e+06 RLU and 4.67e+06 RLU, respectively.

B6: CD71-binding FN3 domain of SEQ ID NO: 517 (designed binder)
chain: MLPAPKNLVVSRVTEDSARLSWTAPDAAFDSFFIGYLEPQPPGEAIALVVPGSERSYDLTGLKPGTEYNVTIQGVKGGFPSMPLFAYFTT
As to B6, the “hCD71:HSA” value in assay [1] was determined as 142. The “Apical domain:HSA” value in assay [2] came to 166. The RLU in assay [3] was 3.12e+06 RLU; in assay [4], 3.64e+06 RLU.

B7: CD71-binding FN3 domain of SEQ ID NO: 514 (designed binder)
chain: MLPAPKNLVVSRVTEDSARLSWTAPDAAFDSFFIGYLEPQPPGEAIHLFVPGSERSYDLTGLKPGTEYNVTIQGVKGGFPSEPLIANFTT
Consider B7, for which the “hCD71:HSA” value in assay [1] amounted to 119. Also, the “Apical domain:HSA” value in assay [2] was 119. Besides, the figures for the RLU in assay [3] and in assay [4] were 5.92e+06 RLU and 5.94e+06 RLU, respectively.

B8: CD71-binding FN3 domain of SEQ ID NO: 508 (designed binder)
chain: MLPAPKNLVVSRVTEDSARLSWTAPDAAFDSFFIGYLEPQPPGEAITLSVPGSERSYDLTGLKPGTEYNVTIQGVKGGFPSEPLIAIFTT
As to B8, in assay [1], the “hCD71:HSA” value came to 264. The “Apical domain:HSA” value in assay [2] came out at 222. Moreover, the RLU worked out at 4.22e+06 RLU in assay [3] and 3.55e+06 RLU in assay [4].

B9: CD71-binding FN3 domain of SEQ ID NO: 498 (designed binder)
chain: MLPAPKNLVVSRVTEDSARLSWTAPDAAFDSFFIGYLEPQPPGEAIILWVPGSERSYDLTGLKPGTEYNVTIQGVKGGFPSIPLIAVFTT
For B9, in assay [1], the “hCD71:HSA” value is 113. Moreover, the “Apical domain:HSA” value in assay [2] came to 112. Moreover, the values for the RLU in assay [3] and in assay [4] were 5.7e+06 RLU and 5.67e+06 RLU, respectively.

B10: CD71-binding FN3 domain of SEQ ID NO: 505 (designed binder)
chain: MLPAPKNLVVSRVTEDSARLSWTALDAAFDSFFIGYLEPQPPGEAIHLFVPGSERSYDLTGLKPGTEYNVTIQGVKGGFPSEPLIANFTT
In the case of B10, the “hCD71:HSA” value in assay [1] worked out at 52. In addition, the “Apical domain:HSA” value in assay [2] worked out at 54. Moreover, the RLU worked out at 5.38e+06 RLU in assay [3] and 5.64e+06 RLU in assay [4].

B11: CD71-binding FN3 domain of SEQ ID NO: 504 (designed binder)
chain: MLPAPKNLVVSRVTEDSARLSWTAPDAAFDSFFIGYLEPQPPGEAIGLVVPGSERSYDLTGLKPGTEYNVTIQGVKGGFPSHPLGAIFTT
Take B11: the “hCD71:HSA” value in assay [1] is 78. Further, the “Apical domain:HSA” value in assay [2] is 172. For the same molecule, the RLU in assay [3] amounted to 1.22e+06 RLU; in assay [4], 2.68e+06 RLU.

B12: CD71-binding FN3 domain of SEQ ID NO: 500 (designed binder)
chain: MLPAPKNLVVSRVTEDSARLSWTAPDAAFDSFFIGYLEPQPPGEAIDLLVPGSERSYDLTGLKPGTEYNVTIQGVKGGFPSMPLSAIFTT
On to B12, for which the “hCD71:HSA” value in assay [1] stood at 147. The “Apical domain:HSA” value in assay [2] was 169. Moreover, the results for the RLU in assay [3] and in assay [4] were 2.95e+06 RLU and 3.39e+06 RLU, respectively.

B13: CD71-binding FN3 domain of SEQ ID NO: 513 (designed binder)
chain: MLPAPKNLVVSRVTEDSARLSWTAPDAAFDSFFIGYLEPQPPGEAISLYVPGSERSYDLTGLKPGTEYNVTIQGVKGGFPSLPLAAQFTT
With B13, the “hCD71:HSA” value in assay [1] is 186. Further, the “Apical domain:HSA” value in assay [2] was determined as 201. Also, the RLU in assay [3] came out at 2.52e+06 RLU; in assay [4], 2.72e+06 RLU.

B14: CD71-binding FN3 domain of SEQ ID NO: 502 (designed binder)
chain: MLPAPKNLVVSRVTEDSARLSWTAPDAAFDSFFIGYLEPQPPGEAIGLHVPGSERSYDLTGLKPGTEYNVTIQGVKGGFPSIPLEAKFTT
On to B14, for which the “hCD71:HSA” value in assay [1] is 141. For the same molecule, the “Apical domain:HSA” value in assay [2] amounted to 222. The values for the RLU in assay [3] and in assay [4] were 1.49e+06 RLU and 2.34e+06 RLU, respectively.

B15: CD71-binding FN3 domain of SEQ ID NO: 512 (designed binder)
chain: MLPAPKNLVVSRVTEDSARLSWTAPDAAFDSFFIGYLEPQPPGEAIDLWVPGSERSYDLTGLKPGTEYNVTIQGVKGGFPSDPLDAHFTT
In the case of B15, the “hCD71:HSA” value in assay [1] is 124. In addition, in assay [2], the “Apical domain:HSA” value was 233. Also, the RLU worked out at 2.06e+06 RLU in assay [3] and 3.87e+06 RLU in assay [4].

B16: CD71-binding FN3 domain of SEQ ID NO: 497 (designed binder)
chain: MLPAPKNLVVSRVTEDSARLSWTAPDAAFDSFFIGYLEPQPPGEAITLLVPGSERSYDLTGLKPGTEYNVTIQGVKGGFPSKPLYAYFTT
Take B16: in assay [1], the “hCD71:HSA” value is 229. Moreover, in assay [2], the “Apical domain:HSA” value came to 358. In addition, the RLU stood at 2.93e+06 RLU in assay [3] and 4.58e+06 RLU in assay [4].

B17: CD71-binding FN3 domain of SEQ ID NO: 496 (designed binder)
chain: MLPAPKNLVVSRVTEDSARLSWTAPDAAFDSFFIGYLEPQPPGEAIILWVPGSERSYDLTGLKPGTEYNVTIQGVKGGFPSVPLIAQFTT
For the molecule B17, the “hCD71:HSA” value in assay [1] worked out at 43. Further, in assay [2], the “Apical domain:HSA” value was 47. The RLU in assay [3] was found to be 5.27e+06 RLU; in assay [4], 5.66e+06 RLU.

B18: CD71-binding FN3 domain of SEQ ID NO: 522 (designed binder)
chain: MLPAPKNLVVSRVTEDSARLSWTAPDAAFDSFFIGYLEPQPPGEAITLYVPGSERSYDLNGLKPGTEYNVTIQGVKGGFPSMPLSAIFTT
Turning to B18, in assay [1], the “hCD71:HSA” value was 318. Moreover, the “Apical domain:HSA” value in assay [2] turned out to be 283. The RLU came out at 3.91e+06 RLU in assay [3] and 3.48e+06 RLU in assay [4].

B19: CD71-binding FN3 domain of SEQ ID NO: 515 (designed binder)
chain: MLPAPKNLVVSRVTEDSARLSWTAPDAAFDSFFIGYLEPQPPGEAIALWVPGSERSYDLTGLKPGTEYNVTIQGVKGGFPSTPLIAQFTT
With B19, the “hCD71:HSA” value in assay [1] came out at 97. The “Apical domain:HSA” value in assay [2] is 88. Also, the RLU stood at 5.14e+06 RLU in assay [3] and 4.67e+06 RLU in assay [4].

B20: CD71-binding FN3 domain of SEQ ID NO: 526 (designed binder)
chain: MLPAPKNLVVSRVTEDSARLSWTAPDAAFDSFFIGYLEPQPPGEAISLIVPGSERSYDLTGLKPGTEYNVTIQGVKGGFPSDPLIAIFTT
Consider B20, for which the “hCD71:HSA” value in assay [1] is 497. Also, the “Apical domain:HSA” value in assay [2] was 721. Besides, the RLU is 3.7e+06 RLU in assay [3] and 5.37e+06 RLU in assay [4].

B21: CD71-binding FN3 domain of SEQ ID NO: 521 (designed binder)
chain: MLPAPKNLVVSRVTEDSARLSWTAPDAAFDSFFIGYLEPQPPGEAIVLWVPGSERSYDLTGLKPGTEYNVTIQGVKGGFPSHPLVAHFTT
In the case of B21, in assay [1], the “hCD71:HSA” value came out at 186. Moreover, the “Apical domain:HSA” value in assay [2] turned out to be 178. The values for the RLU in assay [3] and in assay [4] were 5.62e+06 RLU and 5.38e+06 RLU, respectively.

B22: CD71-binding FN3 domain of SEQ ID NO: 525 (designed binder)
chain: MLPAPKNLVVSRVTEDSARLSWTAPDAAFDSFFIGYLEPQPPGEAIALYVPGSERSYDLTGLKPGTEYNVTIQGVKGGFPSEPLVATFTT
Regarding B22, the “hCD71:HSA” value in assay [1] stood at 49. Besides, the “Apical domain:HSA” value in assay [2] worked out at 48. The RLU in assay [3] worked out at 6.02e+06 RLU; in assay [4], 5.93e+06 RLU.

B23: CD71-binding FN3 domain of SEQ ID NO: 501 (designed binder)
chain: MLPAPKNLVVSRVTEDSARLSWTAPDAAFDSFFIGYLEPQPPGEAISLLVPGSERSYDLTGLKPGTEYNVTIQGVKGGFPSVPLSAIFTT
Turning to B23, the “hCD71:HSA” value in assay [1] was found to be 399. In addition, the “Apical domain:HSA” value in assay [2] came out at 606. Further, the figures for the RLU in assay [3] and in assay [4] were 3.21e+06 RLU and 4.88e+06 RLU, respectively.

B24: CD71-binding FN3 domain of SEQ ID NO: 511 (designed binder)
chain: MLPAPKNLVVSRVTEDSARLSWTAPDAAFDSFFIGYLEPQPPGEAIDLFVPGSERSYDLTGLKPGTEYNVTIQGVKGGFPSLPLVASFTT
With B24, in assay [1], the “hCD71:HSA” value was determined as 49. Moreover, the “Apical domain:HSA” value in assay [2] is 53. Moreover, the RLU in assay [3] stood at 5.03e+06 RLU; in assay [4], 5.48e+06 RLU.

B25: CD71-binding FN3 domain of SEQ ID NO: 523 (designed binder)
chain: MLPAPKNLVVSRVTEDSARLSWTAPDAAFDSFFIGYLEPQPPGEAIDLLVPGSERSYDLTGLKPGTEYNVTIQGVKGGFPSEPLTAEFTT
On to B25, for which, in assay [1], the “hCD71:HSA” value was determined as 292. The “Apical domain:HSA” value in assay [2] amounted to 300. Further, the figures for the RLU in assay [3] and in assay [4] were 4.19e+06 RLU and 4.31e+06 RLU, respectively.
